T1: WT-Sema3A with C-terminal His tag (human, UniProt Q14563 21-771, limits assumed)
T1 construct: also called wild type Sema3A; WT-Sema3A peptide; not shown: C-terminal His tag
T1 sequence: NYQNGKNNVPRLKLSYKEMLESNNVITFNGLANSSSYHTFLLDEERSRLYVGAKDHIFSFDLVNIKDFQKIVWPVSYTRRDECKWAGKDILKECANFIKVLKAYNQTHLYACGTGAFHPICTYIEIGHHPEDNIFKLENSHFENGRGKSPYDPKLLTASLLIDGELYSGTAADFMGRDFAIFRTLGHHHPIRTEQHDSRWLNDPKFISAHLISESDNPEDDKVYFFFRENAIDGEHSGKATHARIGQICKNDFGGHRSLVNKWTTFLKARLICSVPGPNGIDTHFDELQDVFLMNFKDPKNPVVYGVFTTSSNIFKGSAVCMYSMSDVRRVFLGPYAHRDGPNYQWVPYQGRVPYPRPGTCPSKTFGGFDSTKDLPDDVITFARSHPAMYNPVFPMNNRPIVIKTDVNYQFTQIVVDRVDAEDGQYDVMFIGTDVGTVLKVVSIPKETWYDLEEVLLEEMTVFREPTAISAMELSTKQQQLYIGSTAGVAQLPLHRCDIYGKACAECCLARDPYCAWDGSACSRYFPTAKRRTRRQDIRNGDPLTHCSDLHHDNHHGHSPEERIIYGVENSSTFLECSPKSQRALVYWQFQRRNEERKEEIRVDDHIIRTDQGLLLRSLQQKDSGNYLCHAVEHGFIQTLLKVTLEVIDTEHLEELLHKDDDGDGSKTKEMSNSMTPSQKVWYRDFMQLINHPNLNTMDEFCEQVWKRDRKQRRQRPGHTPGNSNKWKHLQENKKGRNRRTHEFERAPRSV


Tests used:
[1] = target: T2, neuropilin-1 receptor (human, UniProt O14786 22-923); assay: Sema3A-AP on parental U87MG cells expressing Nrp1, alkaline phosphatase colorimetric assay
T2 construct: whole, on cells; Endogenous receptor on human cells; also called Nrp1; nrp1

[2] = target: T1, WT-Sema3A with C-terminal His tag; assay: inferred by the filing from the phosphorylation assay in BLCL versus BLCL+CD72 cells
Description: Cells were serum starved for 16 h. At the day of the experiment, cells were activated with 5 μg/ml anti IgM for 5 min at 37° C. and then 10 μg/ml of Sema3A or elution buffer as a control were added for extra 10 min at 37° C. The experiment was terminated by a wash with ice cold PBS and lysed with phosphorylation lysis buffer (50 mM Tris-HCl pH-7.5, 150 mM NaCl, 2 mM EDTA, 2 mM EGTA, 5 mM NaF, 2 mM Na₃VO₄, 10 mM Na₄P₂O₇, 1% Triton X-100). 80 μg of proteins were subjected to SDS-PAGE and immunoblotted with an antibody directed against phosphorylated target protein, the blot was then stripped and re-probed with an antibody directed against total protein. Western blots were probed with the following antibodies: anti STAT4 (C-4) (Santa Cruz Biotechnology), anti phospho-STAT4 (Tyr693) (Santa Cruz Biotechnology), p38 MAPK Antibody (Cell Signaling Technology, Inc), Phospho-p38 MAPK (Thr180/Tyr182) Antibody (Cell Signaling Technology, Inc). Quantification of band intensity was performed using ImageQuant LAS 4000 program.
To test whether Sema3A signal transduction is mediated by CD72, Furthermore, CD72 was expressed in primary B-lymphoblastoid cells that lack neuropilin-1. […] Next, BLCL cells and BLCL cells expressing CD72 (BLCL+CD72) were stimulated with WT-Sema3A peptide. The phosphorylation state of Stat-4 and P38 was than determined. […]

T2 sequence (O14786 22-923): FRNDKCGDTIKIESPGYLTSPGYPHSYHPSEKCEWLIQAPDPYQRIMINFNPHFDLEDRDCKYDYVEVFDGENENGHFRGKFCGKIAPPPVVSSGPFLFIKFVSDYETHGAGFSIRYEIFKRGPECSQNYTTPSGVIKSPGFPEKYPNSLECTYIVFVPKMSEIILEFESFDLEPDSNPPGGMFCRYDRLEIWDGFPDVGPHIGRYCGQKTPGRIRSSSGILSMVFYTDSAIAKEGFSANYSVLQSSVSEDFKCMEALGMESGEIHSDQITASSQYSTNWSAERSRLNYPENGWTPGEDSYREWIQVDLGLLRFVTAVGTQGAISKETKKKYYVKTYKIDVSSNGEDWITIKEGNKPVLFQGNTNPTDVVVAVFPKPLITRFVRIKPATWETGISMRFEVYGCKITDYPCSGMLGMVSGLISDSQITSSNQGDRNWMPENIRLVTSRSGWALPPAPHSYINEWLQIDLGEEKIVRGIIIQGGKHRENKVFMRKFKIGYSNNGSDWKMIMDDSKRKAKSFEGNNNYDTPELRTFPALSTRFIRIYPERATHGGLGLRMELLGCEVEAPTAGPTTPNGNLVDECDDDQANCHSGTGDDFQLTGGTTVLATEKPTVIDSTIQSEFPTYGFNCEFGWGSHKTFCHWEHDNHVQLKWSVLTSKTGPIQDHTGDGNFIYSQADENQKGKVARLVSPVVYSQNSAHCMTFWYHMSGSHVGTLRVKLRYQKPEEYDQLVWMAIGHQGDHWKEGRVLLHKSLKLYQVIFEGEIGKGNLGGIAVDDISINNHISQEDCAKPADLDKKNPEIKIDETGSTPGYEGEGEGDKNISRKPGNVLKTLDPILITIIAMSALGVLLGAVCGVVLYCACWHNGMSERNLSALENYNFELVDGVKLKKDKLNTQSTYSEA

| binding result [1] | binding result [2] | Binder |
| --- | --- | --- |
| binds | – | Sema3A-AP (WT-Sema3A in frame with alkaline phosphatase) (ligand, Secreted by HEK293-Sema3A-AP cells and used as 50-fold concentrated conditioned medium; also called Sema3A-Alkaline Phosphatase; AP-Sema3A; not shown: alkaline phosphatase fused in frame) NYQNGKNNVPRLKLSYKEMLESNNVITFNGLANSSSYHTFLLDEERSRLYVGAKDHIFSFDLVNIKDFQKIVWPVSYTRRDECKWAGKDILKECANFIKVLKAYNQTHLYACGTGAFHPICTYIEIGHHPEDNIFKLENSHFENGRGKSPYDPKLLTASLLIDGELYSGTAADFMGRDFAIFRTLGHHHPIRTEQHDSRWLNDPKFISAHLISESDNPEDDKVYFFFRENAIDGEHSGKATHARIGQICKNDFGGHRSLVNKWTTFLKARLICSVPGPNGIDTHFDELQDVFLMNFKDPKNPVVYGVFTTSSNIFKGSAVCMYSMSDVRRVFLGPYAHRDGPNYQWVPYQGRVPYPRPGTCPSKTFGGFDSTKDLPDDVITFARSHPAMYNPVFPMNNRPIVIKTDVNYQFTQIVVDRVDAEDGQYDVMFIGTDVGTVLKVVSIPKETWYDLEEVLLEEMTVFREPTAISAMELSTKQQQLYIGSTAGVAQLPLHRCDIYGKACAECCLARDPYCAWDGSACSRYFPTAKRRTRRQDIRNGDPLTHCSDLHHDNHHGHSPEERIIYGVENSSTFLECSPKSQRALVYWQFQRRNEERKEEIRVDDHIIRTDQGLLLRSLQQKDSGNYLCHAVEHGFIQTLLKVTLEVIDTEHLEELLHKDDDGDGSKTKEMSNSMTPSQKVWYRDFMQLINHPNLNTMDEFCEQVWKRDRKQRRQRPGHTPGNSNKWKHLQENKKGRNRRTHEFERAPRSV |
| – | binds | CD72 (full-length, untagged, on cells: BLCL-CD72 cells; CD4+ T cells) (receptor, human, UniProt P21854 1-359, looked up, whole, on cells; also called CD72 receptor) MAEAITYADLRFVKAPLKKSISSRLGQDPGADDDGEITYENVQVPAVLGVPSSLASSVLGDKAAVKSEQPTASWRAVTSPAVGRILPCRTTCLRYLLLGLLLTCLLLGVTAICLGVRYLQVSQQLQQTNRVLEVTNSSLRQQLRLKITQLGQSAEDLQGSRRELAQSQEALQVEQRAHQAAEGQLQACQADRQKTKETLQSEEQQRRALEQKLSNMENRLKPFFTCGSADTCCPSGWIMHQKSCFYISLTSKNWQESQKQCETLSSKLATFSEIYPQSHSYYFLNSLLPNGGSGNSYWTGLSSNKDWKLTDDTQRTRTYAQSSKCNKVHKTWSWWTLESESCRSSLPYICEMTAFRFPD |

Reference: patent publication US20230272020A1 (MEDICAL RESEARCH AND DEVELOPMENT FUND FOR HEALTH SERVICES …, published 2023)
